Measured values reported in patent publication US20250216395A1 (ATYR PHARMA, published 2025).

T1: NRP1v2 (22-602) (human, UniProt O14786 22-602)
T1 construct: Recombinant protein; also called human NRP1
T1 sequence: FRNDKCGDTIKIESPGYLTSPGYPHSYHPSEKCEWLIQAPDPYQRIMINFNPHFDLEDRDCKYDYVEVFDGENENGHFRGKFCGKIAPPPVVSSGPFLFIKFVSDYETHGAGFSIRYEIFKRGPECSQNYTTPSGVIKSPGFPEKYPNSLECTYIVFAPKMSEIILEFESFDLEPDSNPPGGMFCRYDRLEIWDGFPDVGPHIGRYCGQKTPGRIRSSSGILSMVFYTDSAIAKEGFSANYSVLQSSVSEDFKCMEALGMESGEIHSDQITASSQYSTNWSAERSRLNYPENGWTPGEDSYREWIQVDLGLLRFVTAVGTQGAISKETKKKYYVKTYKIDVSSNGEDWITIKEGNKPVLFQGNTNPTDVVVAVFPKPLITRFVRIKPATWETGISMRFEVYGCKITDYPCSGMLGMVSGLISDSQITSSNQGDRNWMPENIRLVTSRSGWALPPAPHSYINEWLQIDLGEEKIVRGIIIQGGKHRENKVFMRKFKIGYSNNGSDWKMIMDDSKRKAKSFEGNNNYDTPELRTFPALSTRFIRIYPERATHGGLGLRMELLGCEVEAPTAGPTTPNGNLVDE

B1: aNRP2-36v2 (antibody, V domains shown)
VH: ELQLQQSGPELVKPGASVKISCKASGYSFTDYNMNWVKQSNGKSLEWIGVINPKSGTTVYNQKFKGKATLTVDQSSSTAYMQLNSLTSEDSAVYYCARADSSGGCWGQGTTLTVSS
VL: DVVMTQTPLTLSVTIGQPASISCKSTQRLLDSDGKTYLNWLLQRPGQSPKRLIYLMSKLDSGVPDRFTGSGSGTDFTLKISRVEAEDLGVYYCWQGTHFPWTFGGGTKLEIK
notes: Three purification lots were tested; also called antibody aNRP2-36v2; anti-NRP2 antibody
B2: blocking peptide NRP2 (642-659) (peptide)
peptide: SGFNCNFDFLEEPCGWMY
notes: Peptide corresponding to residues 642-659 of NRP2

Key:
NRP1v2 (22-602) = target: T1, NRP1v2 (22-602); test: Western blot, denatured recombinant protein with or without 50 mM DTT
Experimental: To characterize the binding specificity of antibody aNRP2-36v2 to different denatured isoforms of NRP2 its binding specificity was tested via western blot. In addition to assessing the relative binding to NRP2a and NRP2b, cross-reactivity to mouse and rat NRP2 were also evaluated, as well as non-specific binding to NRP1. The proteins tested via Western were NRP2v2 (23-855) (SEQ ID NO: 14), NRP2v5 (23-832) (SEQ ID NO: 27), mouse NRP2v2 (23-855) (SEQ ID NO: 21), rat NRP2×2 (23-854) (SEQ ID NO: 22), and NRP1v2 (22-602) (SEQ ID NO: 24).
25 ng of each recombinant protein was denatured for 10 minutes at 70° C. with 1×LDS (ThermoFisher, NP0007) with or without 50 mM DTT and separated on a 4-12% Bis-Tris Protein Gel (ThermoFisher, NP0335) in 1×MOPS buffer (ThermoFisher, NP000102). The gel was then transferred to a nitrocellulose membrane (Fisher, cat. #IB23001) using an iBlot2 (Fisher, cat. #IB21001) for 7 min at 20V. The membrane was blocked for 1 hour using a 5% milk 0.05% TBST solution, followed by 1.0 ug/mL of the three lots of aNRP2-36v2 antibody diluted in 5% milk 0.05% TBST. Antibody was incubated on the blots overnight at 4° C. with rocking. After overnight incubation 3 washes with 0.05% TBST for 5 minutes each were performed and goat-a-mouse HRP secondary (Jackson Immuno Research, 115-035-071) diluted at 1:5,000 in the 5% milk mixture was applied to the blots for 1 hour. […]

aNRP2-36v2 = target: B1; test: Western blot competition: 1 ug/mL aNRP2-36v2 with 5 ug/mL blocking peptide; the blocked detection is that of NRP2v2 (23-855) and of NRP2a isoform 2 in lysate
aNRP2-36v2, sequence (VL, as listed by the source): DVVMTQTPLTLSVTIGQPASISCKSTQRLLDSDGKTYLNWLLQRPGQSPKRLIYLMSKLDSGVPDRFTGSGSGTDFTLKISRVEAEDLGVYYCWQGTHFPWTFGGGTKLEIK
Experimental: The specificity of aNRP2-36v2 in Western blotting was also confirmed by the ability of the blocking peptide NRP2 (642-659) (SEQ ID NO: 25) to block binding. For these studies, 100 ng of NRP2v2 (23-855) (SEQ ID NO: 14) recombinant protein and 20 ug of total protein from cell lysates of Expi293 cells transiently expressing NRP2a isoform 2 (SEQ ID NO: 10) were denatured for 10 minutes at 70° C. with 1×LDS (ThermoFisher, NP0007) and separated on a 4-12% Bis-Tris Protein Gel (ThermoFisher, NP0335) in 1×MOPS buffer (ThermoFisher, NP000102). The gel was then transferred to a nitrocellulose membrane (Fisher, cat. #IB23001) using an iBlot2 (Fisher, cat. #IB21001) for 7 min at 20V. The membrane was blocked for 1 hour using a 5% milk 0.05% TBST solution, followed by 1 ug/mL of aNRP2-36v2 antibody with or without 5 ug/mL blocking peptide, diluted in 5% milk 0.05% TBST. A peptide corresponding to NRP2v2 (809-820) (SEQ ID NO: 26) was also used as a control. Antibody was incubated on the blots overnight at 4° C. with rocking. After overnight incubation 3 washes with 0.05% TBST for 5 minutes each were performed and goat-a-mouse HRP secondary (Jackson Immuno Research, 115-035-071) diluted at 1:5,000 in the 5% milk mixture was applied to the blots for 1 hour. This was followed by 3 more washes with 0.05% TBST for 5 minutes each. […]

binding result (NRP1v2 (22-602)) | binding result (aNRP2-36v2) | Binder
no binding |  | B1
 | binds | B2
